The subject of data set [1] is ecHOP1-wHTH (SUMO-wHTH) (Ectocarpus). Put plainly: EMSA. Conditions: apparent Kd, Hill h = 1.7; 50 nM DNA; EMSA: 50 nM nucleic acid, protein 25 nM-2 uM, ~30 min at 4 C, 0.8% agarose in 0.2% TBE (so in the source) at 4 C, SYBR Gold; binding buffer, salt and pH not stated. In general terms: In EMSA bound probe runs differently from free probe, usually more slowly.
Data set [2] has as its target 2xStrepII-ecHOP1-HORMA (ecHOP1 residues 1-274) (Ectocarpus siliculosus). Nature of the data set: ITC; 350 µM MBP-tagged CM titrated into 25 µM ecHOP1-HORMA in the cell; 50 mM HEPES pH 7.5, 150 mM NaCl, 1 mM EDTA; 25 °C; MicroCal PEAQ-ITC; triplicate. For orientation: ITC needs no label: the signal is the heat of the interaction.

As for 167 bp Widom DNA, in data set [1], the Kd is 0.25 µM.
With “His6-MBP-CM-R-A (ecRED1 closure motif A) (domain or fragment)”, in data set [2], the Kd was determined as 60.3 µM.
In turn, “MBP-CM-H1-B (ecHOP1 isoform 1 closure motif B, residues 665-694) (domain or fragment)” had a Kd in data set [2] of 10.6 µM.
In data set [2], “MBP-CM-H1-A (ecHOP1 isoform 1 closure motif A, residues 567-600) (domain or fragment)” yielded a Kd of 7.2 µM.

The values are drawn from article PMC12678776.
